Laboratory results reported in the nanobody polyreactivity screen of Harvey et al. (2022).

Assay: yeast display, Sf9 membrane polyspecificity reagent, FACS + sequencing; frameworks hold sequencing errors
Summary of the method: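 Sorting gates, low and high (top ~1%), were placed on anti-HA fluorescence to track expression and on streptavidin fluorescence to track reagent binding. A clone's polyreactivity label is taken from the gate it came out of. The reagent was 10% biotinylated, detergent-solubilized Sf9 membrane, applied for 1 hour at 4 °C to galactose-induced yeast display cells.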
For “QVQLVESGGGLVQAGGSLRLSCAASGGTFYYYAMGWYRQAPGKERELVAAISWSGVSTSYADSVKGRFTISRDNAKNTVFLQMNSMKPEDTAVYYCAAGPFYYTGGHWGQGTQVTVSS”, the “polyreactivity (PSR sort gate)” value was “high polyreactivity”. For “QVQLVESGGGLVQAGGSLRLSCAASGGTFYYYAMGWYRQAPGKERELVAAITGTGGRTYYADSVKGRFTISRDNAKNTVYLQMNSLKPEDTAVYYCAKYPAARAVDYWGQGTQVTVSS”, the “polyreactivity (PSR sort gate)” value was “high polyreactivity”. With “QVQLVESGGGLVQAGGSLRLSCAASGGTFYYYAMGWYRQAPGKERELVATITWSGDSTNYADSVKGRFTISRDNAKNTVYLQMNSLKPEDTAVYYCAKDLTQSYEYDYWGQGTQVTVSS” the “polyreactivity (PSR sort gate)” value was “low polyreactivity”. With “QVQLVESGGGLVQAGGSLRLSCAASGGTGARNAMGWYRQAPGKERELVATITRRAGTTYYADSVKGRFTISRDNAKNTVYLQMNSLKPEDTAVYYCARVATWGYYPYLIPEVGYDYWGQGTQVTVSS” the “polyreactivity (PSR sort gate)” value was “high polyreactivity”. In the case of “QVQLVESGGGLVQAGGSLRLSCAASGGTIAFNGMGWYRQAPGKERELVAAITWRSGSTYYADSVKGRFTISRDNAKNTVYLQMNSLKPEDTAVYYCAARLYRYTPFDYWGQGTQVTVSS”, the “polyreactivity (PSR sort gate)” value is reported as “high polyreactivity”. For “QVQLVESGGGLVQAGGSLRLSCAASGGTIAPYAMGWYRQAPGKERELVATISYSGTSTNYADSVKGRFTISRDNAKNTVYLQMNSLKPEDTAVYYCAKRYHQYRWRGWLWGFDYWGQGTQVTVSS”, the “polyreactivity (PSR sort gate)” value was “high polyreactivity”. For “QVQLVESGGGLVQAGGSLRLSCAASGGTIGWYAMGWYRQAPGKERELVAAITSSGGTTFYADSVKGRFTISRDNAKNTVYLQMNSLKPEDTAVYYCAKRGKRPTRYKLGKYDYWGQGTQVTVSS”, the “polyreactivity (PSR sort gate)” value was “high polyreactivity”. For “QVQLVESGGGLVQAGGSLRLSCAASGGTIRYYAMGWYSQAPWKERELVAAISVGGGRTYYADSVKGRFTISRDNAKNTVYLQMNSLKPEDTAVYYCAADYASWSNWGYEYWGQGTQVTVSS”, the “polyreactivity (PSR sort gate)” value was “high polyreactivity”. With “QVQLVESGGGLVQAGGSLRLSCAASGGTISRYGMGWYRPAPRKERELVAAITRSGSTNYADSVKERFTISRDNAKYTVYLQMNSLKPEDTAVYYGATDKRGRIGGTFDYWGQGTQVTVSS” the “polyreactivity (PSR sort gate)” value was “low polyreactivity”. For “QVQLVESGGGLVQAGGSLRLSCAASGGTLDVYAMGWYRQAPGKEREFVAAISWSGGRTYYADSVKGRFTISRDNAKNTVYLQMNSLKPEDTAVYYCATRDRAGYYYWGQGTQVTVSS”, the “polyreactivity (PSR sort gate)” value was “high polyreactivity”. In the case of “QVQLVESGGGLVQAGGSLRLSCAASGGTLDYYVMAWYRQAPGKERELVAAISTNGGSTNYADSVKGRFTISRDNAKNTVYLQMNSLKPEDTAVYYCAATSDVYVFLEFDYWGQGTQVTVSS”, the “polyreactivity (PSR sort gate)” value is reported as “low polyreactivity”. In the case of “QVQLVESGGGLVQAGGSLRLSCAASGGTLRGYAMGGYRQAPGKEREFDATISRRGGSTYYADSVKGRFTNSRDNAKNTVYLQMNSLKPEDTAVYYCAKQGQSDYYSWGQGTQVTVSS”, the “polyreactivity (PSR sort gate)” value is reported as “high polyreactivity”. In the case of “QVQLVESGGGLVQAGGSLRLSCAASGGTLRYYAMGWYRQAPGKEREFVASISRSGGSTYYADSVKGRFTISRDNAKNTVYLQMNSLKPEDTAVYYCAAYWSPGYTTRRGYWGQGTQVTVSS”, the “polyreactivity (PSR sort gate)” value is reported as “high polyreactivity”. With “QVQLVESGGGLVQAGGSLRLSCAASGGTLRYYAMGWYRQAPGTEREFVASIARSGGSTYYADSVKGGFTISRDNAKNTVYLQMNRLKPEDTAVYYCADRVRLYRGFTKYDYWGQGTQVTVSS” the “polyreactivity (PSR sort gate)” value was “high polyreactivity”. With “QVQLVESGGGLVQAGGSLRLSCAASGGTLYYYAMGWSRQAPGKERELVADITNSGSTNYADSVKGRFTISRDNAKNTVYLQMNSLKPEDTAVYYCAAYSWSWYHPEFDYWGQGTQVTVSS” the “polyreactivity (PSR sort gate)” value was “high polyreactivity”. In the case of “QVQLVESGGGLVQAGGSLRLSCAASGGTSRSYAMGWYRQAPGKERELVAAISWRGGRTYYADSVKGRFTISRDNAKNTVYLQMNSLKPEDTAVYYCAARQYSQEPYDYWGQGTQVTVSS”, the “polyreactivity (PSR sort gate)” value is reported as “high polyreactivity”. For “QVQLVESGGGLVQAGGSLRLSCAASGGTVKYYAMGWSRQSPGKERELVAAITWSGGSTYYADSVKGRFTISRDNAKNTVYLQMNSLKPEDTAVYYCNAAYSQISFNYWGQGTQVTVSS”, the “polyreactivity (PSR sort gate)” value was “high polyreactivity”. In the case of “QVQLVESGGGLVQAGGSLRLSCAASGGTVYRNAMGWYRQAPGKERELVAAITRSGSTNYADSVKGRFTISRDNAKNTVYLQMNSLKPEDTAVYYCAAKFFRNTYSYGMDYWGQGTQVTVSS”, the “polyreactivity (PSR sort gate)” value is reported as “high polyreactivity”. With “QVQLVESGGGLVQAGGSLRLSCAASGHIFFINAMGWYRQAPGKERELVAAIDWSGGSTYYADSVKGRFTISRDNAKNTDYLQMNSLKPADTAVYYCAAELLWDYILYYYWGQGTQVTVSS” the “polyreactivity (PSR sort gate)” value was “high polyreactivity”. For “QVQLVESGGGLVQAGGSLRLSCAASGHIFFYYTMGWYRQAPGKERELVAGITIGGSTNYADSVKGRFTISRDNAKNTVYLQMNSLKPEDTAVYYCNVVKYVYIYTYWEYYYWGQGTQVTVSS”, the “polyreactivity (PSR sort gate)” value was “low polyreactivity”. In the case of “QVQLVESGGGLVQAGGSLRLSCAASGHIFGRYAMGWYRQAPGKERELVAAITSGGRTNYADSVKGRFTISRDNAKNTVYLQMNSLKPEDTAVYYCAAYSWYFGSRYDYWGQGTQVTVSS”, the “polyreactivity (PSR sort gate)” value is reported as “low polyreactivity”. For “QVQLVESGGGLVQAGGSLRLSCAASGHTFRYYAMGWYRQAPGKERELVAAITGGGGSTYYADSVKGRFTISRDNAKNTVYLQMNSLKPEDTAVYYFATGGVSGIVGGDYWGQGTQVTVSS”, the “polyreactivity (PSR sort gate)” value was “low polyreactivity”. With “QVQLVESGGGLVQAGGSLRLSCAASGIFRSNARGWYRQAPGKERELVAGISSGGGTNYADSVKGRFTISRDNAKNTVYLQMNSLKPEDTAVYYCAKERIYFDYWYVYTDLVYEYDYWGQGSQVTVSS” the “polyreactivity (PSR sort gate)” value was “low polyreactivity”. In the case of “QVQLVESGGGLVQAGGSLRLSCAASGIFSYYAMGWSRQAPGKERELVAAISWSGGSTYYADSVKGRFTISRDNAKNTVYLQKNSLKPEDTAVYYCNKAYLTSQPRLGYWGQGTQVTVSS”, the “polyreactivity (PSR sort gate)” value is reported as “high polyreactivity”. With “QVQLVESGGGLVQAGGSLRLSCAASGIFWANTMEWYRQAPGKERELVAAISWSGDRTYYADSVKGRFTISRDNAKNTVYLQMNSLKPEDTAVYYCAAEGTGLQRYGYFGDDGYWGQGTQVTVSS” the “polyreactivity (PSR sort gate)” value was “low polyreactivity”. In the case of “QVQLVESGGGLVQAGGSLRLSCAASGIIFAANAMGWYRQAPGKELELVAAISKNGGITYYADSVKGRFTISRDNAKNTVYLQMNSLIPEDPAVYYCAARWRQTRRYYYWGQGSQVTVSS”, the “polyreactivity (PSR sort gate)” value is reported as “high polyreactivity”. With “QVQLVESGGGLVQAGGSLRLSCAASGIIFAANAMGWYRQAPGKERELVAAISKNGGITYYADSVKGRFTISRDNAKNTVYLQMNSLKPEDTAVYYCAAKLSRRYYYWGQGTQVTVSS” the “polyreactivity (PSR sort gate)” value was “high polyreactivity”. For “QVQLVESGGGLVQAGGSLRLSCAASGIIFADYDMGWYRQAPGKERELVAAITGSGGSTYYADSVKGRFTISRDNEKKTVYLQMNSLKPEDTAVYYCAADYAYSYGYHYGYWGQGTQVTVSS”, the “polyreactivity (PSR sort gate)” value was “high polyreactivity”. With “QVQLVESGGGLVQAGGSLRLSCAASGIIFAGNAMGWYRQAPGKERELLAVITSGGSTYYADSVKGRFTISRDNAKNTVFLQINSLIPEDTAVYYCNKVYYAYRVSLYSYGYWGQGTQVTVSS” the “polyreactivity (PSR sort gate)” value was “high polyreactivity”. With “QVQLVESGGGLVQAGGSLRLSCAASGIIFAGNAMGWYRQAPGKERELVAVITSGGSTYYADSVKGRFTISRDNAKNTVYLQMNSLKPEDTAVYYCNKVYYAYRVSLYRYGYWGQGTQVTVSS” the “polyreactivity (PSR sort gate)” value was “high polyreactivity”.
